Target: the molecule itself
Assay: cryo-EM structure

B1: hZnT1-D47N/D255N double mutant (natural protein, human, UniProt Q9Y6M5 1-507, looked up)
chain: MGCWGRNRGRLLCMLALTFMFMVLEVVVSRVTSSLAMLSDSFHMLSNVLALVVALVAERFARRTHATQKNTFGWIRAEVMGALVNAIFLTGLCFAILLEAIERFIEPHEMQQPLVVLGVGVAGLLVNVLGLCLFHHHSGFSQDSGHGHSHGGHGHGHGLPKGPRVKSTRPGSSDINVAPGEQGPDQEETNTLVANTSNSNGLKLDPADPENPRSGDTVEVQVNGNLVREPDHMELEEDRAGQLNMRGVFLHVLGNALGSVIVVVNALVFYFSWKGCSEGDFCVNPCFPDPCKAFVEIINSTHASVYEAGPCWVLYLDPTLCVVMVCILLYTTYPLLKESALILLQTVPKQIDIRNLIKELRNVEGVEEVHELHVWQLAGSRIIATAHIKCEDPTSYMEVAKTIKDVFHNHGIHATTIQPEFASVGSKSSVVPCELACRTQCALKQCCGTLPQAPSGKDAEKTPAVSISCLELSNNLEKKPRRTKAENIPAVVIEIKNMPNKQPESSL
For B1, the “stoichiometry N” value was 2.
